B1: RIPK4 (parent)
chain: VIDLFDEQGLSALHLAAQGRHAQT

Variants of: B1
Assay: protein stability index of a GFP-peptide fusion (GPS, HEK-293T) (PSI 1-6); higher = more stable
Conditions: c terminus: a fixed tail appended
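Note: lentivirally expressed fusions sorted by FACS into six bins by GFP to DsRed ratio, PSI derived from sequencing read proportions per bin multiplied by bin number.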

| Variant | protein stability index |
| --- | --- |
| VIDLFDEQGLSALHLAAQIRHAQT [G19I] | 1.42 |
| VIDLFDEQGLSALHLAAQCRHAQT [G19C] | 2.25 |
| VIDLFDEQGLSALHLAAQARHAQT [G19A] | 2.57 |
| VIDLFDEQGLSALHLAAQLRHAQT [G19L] | 1.63 |
| VIDLFDEQGLSALHLAAQHRHAQT [G19H] | 2.59 |
| VIDLFDEQGLSALHLAAQFRHAQT [G19F] | 1.91 |
| VIDLFDEQGLSALHLAAQMRHAQT [G19M] | 1.64 |
| VIDLFDEQGLSALHLAAQDRHAQT [G19D] | 3.55 |
| VIDLFDEQGLSALHLAAQKRHAQT [G19K] | 3.13 |
| VIDLFDEQGLSALHLAAQERHAQT [G19E] | 3.37 |
| VIDLFDEQGLSALHLAAQNRHAQT [G19N] | 3.03 |
| VIDLFDEQGLSALTLAAQGRHAQT [H14T] | 2.95 |
| VIDLFDEQGLSALCLAAQGRHAQT [H14C] | 2.1 |
| VIDLFDEQGLSALMLAAQGRHAQT [H14M] | 1.89 |
| VIDLFDEQGLSALYLAAQGRHAQT [H14Y] | 2.09 |
| VIDLFDEQGLSALNLAAQGRHAQT [H14N] | 3.5 |
| VIDLFDEQGLSALLLAAQGRHAQT [H14L] | 2.33 |
| VIDLFDEQGLSALPLAAQGRHAQT [H14P] | 3.54 |
| VIDLFDEQGLSALRLAAQGRHAQT [H14R] | 3.25 |
| VIDLFDEQGLSALQLAAQGRHAQT [H14Q] | 3.2 |
| VIDLFDEQGLSALELAAQGRHAQT [H14E] | 4.04 |
| VIDLFDEQGLSALDLAAQGRHAQT [H14D] | 3.6 |
| VIDLFDEQGLSALGLAAQGRHAQT [H14G] | 2.6 |
| VIDLFDEQGLSALWLAAQGRHAQT [H14W] | 1.9 |

| Variant | protein stability index |
| --- | --- |
| VIDLFDEQGLSALILAAQGRHAQT [H14I] | 1.88 |
| VIDLFDEQGLSALVLAAQGRHAQT [H14V] | 2.28 |
| VIDLFDEQGLSALALAAQGRHAQT [H14A] | 2.49 |
| VIDLFDEQGLSALSLAAQGRHAQT [H14S] | 2.55 |
| VIDLFDEQGLSALKLAAQGRHAQT [H14K] | 2.8 |
| VIDLFDEQGLSALFLAAQGRHAQT [H14F] | 1.82 |
| VIDLFDEQGLSALHLAADGRHAQT [Q18D] | 3.42 |
| VIDLFDEQGLSALHLAATGRHAQT [Q18T] | 2.36 |
| VIDLFDEQGLSALHLAASGRHAQT [Q18S] | 2.64 |
| VIDLFDEQGLSALHLAAHGRHAQT [Q18H] | 2.18 |
| VIDLFDEQGLSALHLAAIGRHAQT [Q18I] | 2.51 |
| VIDLFDEQGLSALHLAAVGRHAQT [Q18V] | 2.3 |
| VIDLFDEQGLSALHLAAYGRHAQT [Q18Y] | 2.22 |
| VIDLFDEQGLSALHLAALGRHAQT [Q18L] | 1.85 |
| VIDLFDEQGLSALHLAANGRHAQT [Q18N] | 2.88 |
| VIDLFDEQGLSALHLAACGRHAQT [Q18C] | 2.3 |
| VIDLFDEQGLSALHLAAGGRHAQT [Q18G] | 2.9 |
| VIDLFDEQGLSALHLAAFGRHAQT [Q18F] | 2.01 |
| VIDLFDEQGLSALHLAAEGRHAQT [Q18E] | 3.19 |
| VIDLFDEQGLSALHLAAKGRHAQT [Q18K] | 2.17 |
| VIDLFDEQGLSALHLAAPGRHAQT [Q18P] | 2.82 |
| VIDLFDEQGLSALHLAARGRHAQT [Q18R] | 3.06 |
| VIDLFDEQGLSALHLAAMGRHAQT [Q18M] | 2.15 |
| VIDLFDEQGLSALHLAAAGRHAQT [Q18A] | 2.27 |

| Variant | protein stability index |
| --- | --- |
| VIDLFDEQGLSALHLAAWGRHAQT [Q18W] | 2.88 |
| VIDLFDEQGLSALHSAAQGRHAQT [L15S] | 4.01 |
| VIDLFDEQGLSALHWAAQGRHAQT [L15W] | 2.26 |
| VIDLFDEQGLSALHCAAQGRHAQT [L15C] | 2.74 |
| VIDLFDEQGLSALHGAAQGRHAQT [L15G] | 3.74 |
| VIDLFDEQGLSALHAAAQGRHAQT [L15A] | 3.31 |
| VIDLFDEQGLSALHQAAQGRHAQT [L15Q] | 3.3 |
| VIDLFDEQGLSALHHAAQGRHAQT [L15H] | 3.3 |
| VIDLFDEQGLSALHPAAQGRHAQT [L15P] | 3.37 |
| VIDLFDEQGLSALHFAAQGRHAQT [L15F] | 2.41 |
| VIDLFDEQGLSALHRAAQGRHAQT [L15R] | 2.94 |
| VIDLFDEQGLSALHDAAQGRHAQT [L15D] | 3.39 |
| VIDLFDEQGLSALHMAAQGRHAQT [L15M] | 3.09 |
| VIDLFDEQGLSALHNAAQGRHAQT [L15N] | 3.8 |
| VIDLFDEQGLSALHIAAQGRHAQT [L15I] | 2.81 |
| VIDLFDEQGLSALHTAAQGRHAQT [L15T] | 3.51 |
| VIDLFDEQGLSALHVAAQGRHAQT [L15V] | 3.07 |
| VIDLFDEQGLSALHEAAQGRHAQT [L15E] | 3.47 |
| VIDLFDEQGLSALHKAAQGRHAQT [L15K] | 3.39 |
| VIDLFDEQGLSALHYAAQGRHAQT [L15Y] | 2.32 |
| VIDLFDEQGLSCLHLAAQGRHAQT [A12C] | 2.36 |
| VIDLFDEQGLSILHLAAQGRHAQT [A12I] | 1.91 |
| VIDLFDEQGLSWLHLAAQGRHAQT [A12W] | 2.12 |
| VIDLFDEQGLSNLHLAAQGRHAQT [A12N] | 3.1 |

| Variant | protein stability index |
| --- | --- |
| VIDLFDEQGLSKLHLAAQGRHAQT [A12K] | 3.5 |
| VIDLFDEQGLSPLHLAAQGRHAQT [A12P] | 3.25 |
| VIDLFDEQGLSRLHLAAQGRHAQT [A12R] | 3.12 |
| VIDLFDEQGLSELHLAAQGRHAQT [A12E] | 3.54 |
| VIDLFDEQGLSYLHLAAQGRHAQT [A12Y] | 2.54 |
| VIDLFDEQGLSLLHLAAQGRHAQT [A12L] | 1.98 |
| VIDLFDEQGLSQLHLAAQGRHAQT [A12Q] | 3.29 |
| VIDLFDEQGLSTLHLAAQGRHAQT [A12T] | 2.82 |
| VIDLFDEQGLSDLHLAAQGRHAQT [A12D] | 3.21 |
| VIDLFDEQGLSHLHLAAQGRHAQT [A12H] | 2.6 |
| VIDLFDEQGLSGLHLAAQGRHAQT [A12G] | 2.39 |
| VIDLFDEQGLSMLHLAAQGRHAQT [A12M] | 2.46 |
| VIDLFDEQGLSVLHLAAQGRHAQT [A12V] | 1.99 |
| VIDLFDEQGLSSLHLAAQGRHAQT [A12S] | 2.96 |
| VIDLFDEQGLSFLHLAAQGRHAQT [A12F] | 2.05 |
| VIDLFDEQGLAALHLAAQGRHAQT [S11A] | 2.79 |
| VIDLFDEQGLPALHLAAQGRHAQT [S11P] | 2.95 |
| VIDLFDEQGLTALHLAAQGRHAQT [S11T] | 2.63 |
| VIDLFDEQGLGALHLAAQGRHAQT [S11G] | 2.94 |
| VIDLFDEQGLNALHLAAQGRHAQT [S11N] | 2.95 |
| VIDLFDEQGLVALHLAAQGRHAQT [S11V] | 2.12 |
| VIDLFDEQGLIALHLAAQGRHAQT [S11I] | 2.13 |

From the supplement of paper PMC10567573
